The assay has as its target Oslo-2 mAb. The assay can be described thus: peptide array on cellulose membrane (epitope mapping). To be noted: chain shown with the change; duplicates; parent: est. 12000; read off a plot.

Oslo-2 mAb, sequence (chain, as listed by the source, chain 1 of 2): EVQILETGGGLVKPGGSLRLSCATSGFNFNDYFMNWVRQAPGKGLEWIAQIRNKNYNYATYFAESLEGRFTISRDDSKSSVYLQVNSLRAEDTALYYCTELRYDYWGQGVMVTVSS
Oslo-2 mAb, sequence (chain, as listed by the source, chain 2 of 2): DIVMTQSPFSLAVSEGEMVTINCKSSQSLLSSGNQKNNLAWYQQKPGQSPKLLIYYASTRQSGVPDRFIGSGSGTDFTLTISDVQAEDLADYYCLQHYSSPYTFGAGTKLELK

On to GVKPDLSYMPIWKFPDAAGA [20 mer epitope peptide … (region 603-622 in HER2) E619A; E620A], for which the response worked out at 1700.

The values are drawn from paper PMC9563779.
